# B1: Hemopexin: 60 kDa plasma protein that sequesters free heme; protective stress protein (background) (protein, listed as Homo sapiens)
# chain: MARVLGAPVALGLWSLCWSLAIATPLPPTSAHGNVAEGETKPDPDVTERCSDGWSFDATTLDDNGTMLFFKGEFVWKSHKWDRELISERWKNFPSPVDAAFRQGHNSVFLIKGDKVWVYPPEKKEKGYPKLLQDEFPGIPSPLDAAVECHRGECQAEGVLFFQGDREWFWDLATGTMKERSWPAVGNCSSALRWLGRYYCFQGNQFLRFDPVRGEVPPRYPRDVRDYFMPCPGRGHGHRNGTGHGNSTHHGPEYMRCSPHLVLSALTSDNHGATYAFSGTHYWRLDTSRDGWHSWPIAHQWPQGPSAVDAAFSWEEKLYLVQGTQVYVFLTKGGYTLVSGYPKRLEKEVGTPHGIILDSVDAAFICPGSSRLHIMAGRRLWWLDLKSGAQATWTELPWPHEKVDGALCMEKSLGPNSCSANGPGLYLIHGPNLYCYSDVEKLNAAKALPQPQNVTSLLGCTH
# B2: N-Mgb: horse skeletal muscle myoglobin converted into a nitrited form by addition of equimolar sodium nitrite (protein, UniProt P68082 2-154, looked up)
# Myoglobin: GLSDGEWQQVLNVWGKVEADIAGHGQEVLIRLFTGHPETLEKFDKFKHLKTEAEMKASEDLKKHGTVVLTALGGILKKKGHHEAELKPLAQSHATKHKIPIKYLEFISDAIIHVLHSKHPGDFGADAQGAMTKALELFRNDIAAKYKELGFQG
# modifications: nitrited with sodium nitrite
# Key:
# [1] = read-out: affinity to heme (KD); cited from earlier work
# [2] = test system: HO-1; assay: Cardiac HO-1 mRNA and protein after IV N-Mgb, SnPP or both; type: in vivo, mice; conditions: for Cardiac mRNA: HO-1: control 0.07
# Protocol: (§1) Thirty-two mice were divided into 4 equal groups: (1) control mice; (2) mice treated with 1 mg of N-Mgb injection (as a bolus through the tail vein); (3) mice treated with […] of SnPP (via tail vein); and (4) mice treated with combined N-Mgb 1 SnPP. After either 4 hours (n=16) or 18 hours (n=16), the mice were deeply anesthetized with pentobarbital (50 mg/kg), the abdomen was opened through a midline abdominal incision, and the kidneys were removed. To determine potential effects on extrarenal organs, a liver lobe and the heart were also removed. The tissues were iced and then extracted for protein and RNA (RNeasy Plus Mini; Qiagen, Valencia, California) and subjected to enzyme linked immunosorbent assay (ELISA) and reverse transcriptase polymerase chain reaction (RT-PCR) for HO-1, haptoglobin, and IL-10 protein and messenger RNAs (mRNAs). Zager et al. J Am Soc Nephrol 2014; 25:998-1012; Zager et al. Am J Physiol 2012; 303: F139-48. As an assessment of renal function, control mice and the 18 hour after N-Mgb+SnPP-treated mice had blood urea nitrogen (BUN) and plasma creatinine levels measured. Additionally, transverse 10% formalin fixed kidney sections ([…]) were cut and stained with hematoxylin and eosin (H&E) and periodic acid Schiff (PAS) to further assess potential injury.
# [3] = test system: HK-2 cells; assay: Myoglobin toxicity in HK-2 cells, MTT assay; type: cell-based; conditions: equimolar Na nitrite, 10 mg/ml, 18 hr
# Protocol: Example 3. […] HK-2 cells (a proximal tubule cell line derived from normal human kidney) were incubated in keratinocyte serum free medium either under normal (control) conditions or in the presence of 10 mg/mL horse skeletal muscle myoglobin or nitrited myoglobin (produced by equimolar Na nitrite addition to 10 mg/ml myoglobin). After 18 hr incubations, the severity of cell injury (% cell death) was assessed by MTT assay. Myoglobin induced 40% cell death (40% decrease in MTT cell uptake), compared to control incubated cells. Nitrite binding to myoglobin reduced cell death by 75%. Thus, nitrite binding is able to reduce myoglobin's cytotoxic effects.
# [4] = test system: Male CD-1 mice; assay: Glycerol model of rhabdomyolysis-induced AKI (Example 4); type: in vivo; conditions: IV pretreatment 18 hours before glycerol; 18 hours after glycerol
# Protocol: Assessments of cytoresistance. Glycerol model of rhabdomyolysis-induced AKI. Twenty mice were divided into 4 equal groups (controls, mice treated with N-Mgb, SnPP, and mice treated with N-Mgb+SnPP tail vein injections) as described previously. 18 hours later, the mice were briefly anesthetized with isoflurane and immediately injected with 9 mL/kg of 50% glycerol, administered in equally divided doses into each hind limb. At 18 hours after glycerol injection, the mice were anesthetized with pentobarbital, the abdomen was opened, a blood sample for BUN and creatinine assessments was obtained from the vena cava, and the kidneys were resected. The control post-glycerol group and the N-Mgb+SnPP-pretreated glycerol group had kidney sections stained with H&E.
# Calculations and statistics. All values are given as the mean […] standard error of the mean. Statistical comparisons were made by unpaired Student's t test. If multiple comparisons were made, the Bonferroni correction was applied. The severity of renal histologic injury in the glycerol AKI model was graded on a […] (least to most severe tubular necrosis and cast formation observed). The histologic results were compared by Wilcoxon rank sum test. Statistical significance was taken as a P value of <0.05.
# [5] = test system: IL-10; assay: Liver IL-10 mRNA and protein after IV N-Mgb, SnPP or both; type: in vivo, mice; conditions: for Liver mRNA: IL-10: control 0.06; for Liver protein: IL-10: control 314
# Protocol: as §1
# [6] = test system: IL-10; assay: Cardiac IL-10 mRNA and protein after IV N-Mgb, SnPP or both; type: in vivo, mice; conditions: for Cardiac mRNA: IL-10: control 0.36
# Protocol: as §1
# [7] = test system: haptoglobin; assay: Cardiac haptoglobin mRNA and protein after IV N-Mgb, SnPP or both; type: in vivo, mice; conditions: for Cardiac mRNA: Haptoglobin: control 0.31; for Cardiac protein: Haptoglobin: control 15.6
# Protocol: as §1
# [8] = test system: IL-10; assay: Renal cortical IL-10 mRNA and protein after IV N-Mgb, SnPP or both; type: in vivo, mice; conditions: for Kidney protein: IL-10: control 304
# From the text: (§2) Cytoresistance-inducing reagents. […] (#Mb0360; Sigma) was used as the primary cytoresistance-inducing agent. However, because myoglobin (Mgb) has an inherent nephrotoxic potential (particularly under conditions of volume depletion and aciduria), two approaches were used to mitigate Mgb's potential adverse effects. First, the Mgb was converted into a nitrited form by the addition of equimolar amount of sodium (Na) nitrite. In this regard, nitrite is an ambidentate molecule that directly binds 1:1 to myoglobin Fe either via its oxygen or nitrogen component. Cotton et al. Advanced inorganic chemistry. Hobocken, NJ: Wiley-Interscience, 1999:1355; Silaghi-Dumitrescu et al. Nitric Oxide 2014; 42 C: 32-9. […] Rassaf et al. Circ Res 2014; 114:1601-10; Totzeck et al. Circulation 2012; 126:325-34 [J Clin Invest 1992; 89:989-95]; Totzeck et al. PLOS One 2014; 22: e105951; Hendgen-Cotta et al. Proc Natl Acad Sci USA 2008; 105:10256-61.
# as §1
# [9] = Serum creatinine after 2 hr subcutaneous infusion of nitrited myoglobin + SnPP; type: in vivo, mice; conditions: 2 hr subcutaneous infusion of 1, 3, 6, 12, or 25 mg/Kg + 1 μmole SnPP; 18 hrs later
# Protocol: Mice were subjected to a 2 hr subcutaneous infusion of 1, 3, 6, 12, or 25 mg/Kg of nitrited myoglobin (holding SnPP at a constant dose of 1 μmole). Eighteen hrs later, potential renal injury was assessed by measuring serum creatinine concentrations.
# An obvious concern by applying this prophylactic strategy to patients is potential renal and/or extrarenal toxicities. […] Furthermore, it was previously documented in a cell culture system that nitrite addition markedly reduces myoglobin's cytotoxic effects by 75% (unpublished data, 2014). To assess the potential in vivo margin of safety for N-Mgb+SnPP (see Supplemental FIGs.), the maximal amount of N-Mgb that could be given to mice before nephrotoxicity was observed was tested. Up to 25 times the employed N-Mgb dose (with a constant SnPP dose) could be administered (over 2 hours) without induction of nephrotoxicity (normal BUN and creatinine, 18 hours later).
# [10] = test system: haptoglobin; assay: Renal cortical haptoglobin mRNA and protein after IV N-Mgb, SnPP or both; type: in vivo, mice
# From the text: as §2, §1
# [11] = test system: HO-1; assay: Liver HO-1 mRNA and protein after IV N-Mgb, SnPP or both; type: in vivo, mice; conditions: for Liver mRNA: HO-1: control 1.1; for Liver protein: HO-1 protein: control 10.2
# Protocol: as §1
# [12] = test system: haptoglobin; assay: Liver haptoglobin mRNA and protein after IV N-Mgb, SnPP or both; type: in vivo, mice; set-up: Liver protein: Haptoglobin: unit not given beside the values; conditions: for Liver mRNA: Haptoglobin: control 0.5; for Liver protein: Haptoglobin: control 115.3
# Protocol: as §1
# [13] = test system: HO-1; assay: Renal cortical HO-1 mRNA and protein after IV N-Mgb, SnPP or both; type: in vivo, mice
# From the text: as §2, §1
molecule,measurement,setting,value
B1,Kd,[1],< 1 pM
B2,Cardiac mRNA: HO-1,[2]; 4 h after Rx,0.09 ± 0.01
same,Cardiac protein: HO-1,"[2]; 4 h after Rx, control 1.50",1.64 ± 0.19
same,Cardiac mRNA: HO-1,[2]; 18 h after Rx,0.08 ± 0.01
same,Reduction of myoglobin-induced cell death by nitrite binding,[3],75%
same,Protection against glycerol-induced AKI (BUN/creatinine levels),[4],modest protection
same,Liver mRNA: IL-10,[5]; 4 h after Rx,0.67 ± 0.46
same,Liver protein: IL-10,[5]; 4 h after Rx,286 ± 32
same,Liver mRNA: IL-10,[5]; 18 h after Rx,0.06 ± 0.02
same,Liver protein: IL-10,[5]; 18 h after Rx,5988 ± 549
same,Cardiac mRNA: IL-10,[6]; 4 h after Rx,0.86 ± 0.11
same,Cardiac protein: IL-10,"[6]; 4 h after Rx, control 8.1",21 ± 12
same,Cardiac mRNA: IL-10,[6]; 18 h after Rx,0.67 ± 0.10
same,Cardiac protein: IL-10,"[6]; 18 h after Rx, control 8",14.5 ± 10^
same,Cardiac mRNA: Haptoglobin,[7]; 4 h after Rx,0.75 ± 0.10
same,Cardiac protein: Haptoglobin,[7]; 4 h after Rx,40.4 ± 8.6
same,Cardiac mRNA: Haptoglobin,[7]; 18 h after Rx,0.53 ± 0.21
same,Cardiac protein: Haptoglobin,[7]; 18 h after Rx,249.6 ± 15.0
same,Kidney mRNA: IL-10,"[8]; 4 h after Rx, control 0.56",1.45 ± 0.6
same,Kidney protein: IL-10,[8]; 4 h after Rx,265 ± 54
same,Kidney mRNA cortex: IL-10,"[8]; 18 h after Rx, control 0.56",0.43 ± 0.10
same,Kidney protein: IL-10,[8]; 18 h after Rx,292 ± 54
same,Serum creatinine concentrations,[9],No significant increase
same,Kidney mRNA: Haptoglobin,"[10]; 4 h after Rx, control 0.20",1.94 ± 0.31
same,Kidney protein: Haptoglobin,"[10]; 4 h after Rx, control 7.9",17.6 ± 1^
same,Kidney mRNA cortex: Haptoglobin,"[10]; 18 h after Rx, control 0.20",0.24 ± 0.04
same,Kidney protein: Haptoglobin,"[10]; 18 h after Rx, control 10.3",183.8 ± 20.4
same,Liver mRNA: HO-1,[11]; 4 h after Rx,1.83 ± 0.33
same,Liver protein: HO-1 protein,[11]; 4 h after Rx,17 ± 2
same,Liver mRNA: HO-1,[11]; 18 h after Rx,0.82 ± 0.07
same,Liver protein: HO-1 protein,[11]; 18 h after Rx,14.9 ± 0.3
same,Liver mRNA: Haptoglobin,[12]; 4 h after Rx,0.98 ± 0.1
same,Liver protein: Haptoglobin,[12]; 4 h after Rx,359.5 ± 39.6
same,Liver mRNA: Haptoglobin,[12]; 18 h after Rx,0.91 ± 0.07
same,Liver protein: Haptoglobin,[12]; 18 h after Rx,358.8 ± 32.8
same,Kidney mRNA: HO-1,"[13]; 4 h after Rx, control 0.61",3.38 ± 0.38
same,Kidney HO-1 protein,"[13]; 4 h after Rx, control 13.3",36.1 ± 2.9
same,Kidney mRNA cortex: HO-1,"[13]; 18 h after Rx, control 0.61",0.58 ± 0.18
same,Kidney protein: HO-1,"[13]; 18 h after Rx, control 13.3",30 ± 6
